24 sequences from the Immune Epitope Database (IEDB) can be followed below.

The target in one experiment is HLA-B*18:01. The experiment can be described thus: IEDB peptide-MHC binding, purified MHC/competitive/radioactivity; filed as Kd, often an IC50 or EC50 that approximates it; ≥ and ≤ were set here for values at or beyond the usual limits of such assays.
The target of the next experiment is HLA-B*40:01. The experiment is described as above.
For a further experiment, the target named is HLA-B*40:02. The experiment is described as above.
The next experiment addresses HLA-B*44:02. The description is as above.
The next experiment addresses HLA-B*44:03. The description is as above.
For another experiment, the target named is HLA-B*45:01. The experiment is described as above.
Another experiment addresses HLA-B*48:01. The experiment can be described thus: IEDB peptide-MHC binding, purified MHC/direct/fluorescence; filed as Kd, often an IC50 or EC50 that approximates it; ≥ and ≤ were set here for values at or beyond the usual limits of such assays.
The mark [1] stands for this setting: source organism: SARS coronavirus Tor2.
The mark [2] stands for this setting: source organism: Mammarenavirus juninense.
Where [3] appears, read: source organism: Mammarenavirus brazilense.
Setting [4] is: source organism: Mammarenavirus lassaense.
[5] abbreviates: source organism: Mammarenavirus choriomeningitidis.
[6] abbreviates: source organism: Mammarenavirus machupoense.

As usually defined, the pKd is −log10 of the Kd, conventionally taken in molar units.

pKd: −log10 of the molar value.

As to AESHMDADLA, the pKd is not above 4.32 with HLA-B*18:01 (setting [1]); 6.79 with HLA-B*40:01 (setting [1]); 7.20 with HLA-B*40:02 (setting [1]); 5.88 in the experiment with HLA-B*44:02 (setting [1]); 5.95 with HLA-B*44:03 (setting [1]); 8.08 in the experiment with HLA-B*45:01 (setting [1]).

For DELGNILSVY, the pKd in the experiment with HLA-B*18:01 (setting [2]) is 8.05; with HLA-B*40:01 (setting [2]), not above 4.16; in the experiment with HLA-B*40:02 (setting [2]), 4.85; in the experiment with HLA-B*44:02 (setting [2]) it was 5.13; with HLA-B*44:03 (setting [2]) it was 5.92; with HLA-B*45:01 (setting [2]) it was not above 4.15.

In the case of EDQGNPIVL, the pKd in the experiment with HLA-B*18:01 (setting [3]) is not above 4.28; with HLA-B*40:01 (setting [3]) it was 5.31; with HLA-B*40:02 (setting [3]) it was not above 4.62; in the experiment with HLA-B*44:02 (setting [3]), not above 4.44; in the experiment with HLA-B*44:03 (setting [3]), not above 4.11; with HLA-B*45:01 (setting [3]) it was 4.83.

Regarding FEKAKIEVL, the pKd with HLA-B*48:01 (source organism: Campylobacter jejuni subsp. jejuni 81-176) is not above 4.70.

For the sequence FELCDNPFF, the pKd in the experiment with HLA-B*18:01 (setting [1]) is 6.68; with HLA-B*40:01 (setting [1]) it was 7.45; in the experiment with HLA-B*40:02 (setting [1]), 7.02; with HLA-B*44:02 (setting [1]), 7.49; with HLA-B*44:03 (setting [1]), 7.24; in the experiment with HLA-B*45:01 (setting [1]), 4.75.

As to FEYISDAFSL, the pKd with HLA-B*18:01 (setting [1]) is 5.74; with HLA-B*40:01 (setting [1]), 8.78; in the experiment with HLA-B*40:02 (setting [1]), 6.08; in the experiment with HLA-B*44:02 (setting [1]), 5.49; with HLA-B*44:03 (setting [1]), 5.84; with HLA-B*45:01 (setting [1]), 5.20.

For the sequence GEENFSSRMY, the pKd is 5.40 with HLA-B*18:01 (setting [1]); 5.07 with HLA-B*40:01 (setting [1]); 4.85 with HLA-B*40:02 (setting [1]); 7.24 with HLA-B*44:02 (setting [1]); 7.17 in the experiment with HLA-B*44:03 (setting [1]); 5.49 with HLA-B*45:01 (setting [1]).

Turning to GEVLSLDKL, the pKd was not above 4.11 in the experiment with HLA-B*18:01 (setting [1]); 7.96 in the experiment with HLA-B*40:01 (setting [1]); 7.51 with HLA-B*40:02 (setting [1]); 5.10 with HLA-B*44:02 (setting [1]); 5.63 with HLA-B*44:03 (setting [1]); 4.76 in the experiment with HLA-B*45:01 (setting [1]).

Consider KDPLITSGC, for which the pKd with HLA-B*18:01 (setting [4]) was not above 4.11; with HLA-B*40:01 (setting [4]), 4.76; with HLA-B*40:02 (setting [4]) it was 5.35; in the experiment with HLA-B*44:02 (setting [4]) it was not above 4.11; in the experiment with HLA-B*44:03 (setting [4]) it was not above 4.11; in the experiment with HLA-B*45:01 (setting [4]), not above 4.11.

With KEAYCQEFFL, the pKd in the experiment with HLA-B*18:01 (setting [4]) is not above 4.52; in the experiment with HLA-B*40:01 (setting [4]) it was 4.96; in the experiment with HLA-B*40:02 (setting [4]), 7.82; with HLA-B*44:02 (setting [4]), 6.28; with HLA-B*44:03 (setting [4]) it was 5.93; with HLA-B*45:01 (setting [4]), 4.81.

As for KEQLQLLMPL, the pKd is 6.74 with HLA-B*18:01 (setting [1]); 6.80 in the experiment with HLA-B*40:01 (setting [1]); 8.28 with HLA-B*40:02 (setting [1]); 6.57 in the experiment with HLA-B*44:02 (setting [1]); 7.31 with HLA-B*44:03 (setting [1]); 6.92 with HLA-B*45:01 (setting [1]).

In the case of LEGSISYSEL, the pKd is not above 4.35 in the experiment with HLA-B*18:01 (setting [1]); 7.21 with HLA-B*40:01 (setting [1]); 6.81 with HLA-B*40:02 (setting [1]); 5.25 with HLA-B*44:02 (setting [1]); 5.82 with HLA-B*44:03 (setting [1]); 5.66 in the experiment with HLA-B*45:01 (setting [1]).

With LEGSVRVVT, the pKd is 4.77 with HLA-B*18:01 (setting [1]); 6.10 in the experiment with HLA-B*40:01 (setting [1]); 7.16 in the experiment with HLA-B*40:02 (setting [1]); 6.02 with HLA-B*44:02 (setting [1]); 6.01 with HLA-B*44:03 (setting [1]); 7.23 in the experiment with HLA-B*45:01 (setting [1]).

As to LEGYAFEHIV, the pKd with HLA-B*18:01 (setting [1]) is 5.95; in the experiment with HLA-B*40:01 (setting [1]), 4.76; with HLA-B*40:02 (setting [1]) it was 5.75; with HLA-B*44:02 (setting [1]), not above 4.29; with HLA-B*44:03 (setting [1]), not above 4.55; with HLA-B*45:01 (setting [1]), 6.50.

On to MDLLLFSTS, for which the pKd with HLA-B*18:01 (setting [5]) was 5.39; with HLA-B*40:01 (setting [5]), 5.15; with HLA-B*40:02 (setting [5]), 6.58; with HLA-B*44:02 (setting [5]), 5.16; with HLA-B*44:03 (setting [5]), 5.57; with HLA-B*45:01 (setting [5]), 5.97.

With NEYRQYLDA, the pKd with HLA-B*18:01 (setting [1]) is 5.62; in the experiment with HLA-B*40:01 (setting [1]), 5.75; with HLA-B*40:02 (setting [1]) it was 6.03; in the experiment with HLA-B*44:02 (setting [1]) it was 4.91; with HLA-B*44:03 (setting [1]), 4.96; with HLA-B*45:01 (setting [1]), 7.01.

Take PDFNELFQL: the pKd with HLA-B*18:01 (setting [3]) was not above 4.11; in the experiment with HLA-B*40:01 (setting [3]), not above 4.63; with HLA-B*40:02 (setting [3]), 5.77; with HLA-B*44:02 (setting [3]), not above 4.54; with HLA-B*44:03 (setting [3]) it was not above 4.64; with HLA-B*45:01 (setting [3]), not above 4.11.

As to PEIWLQLNT, the pKd with HLA-B*18:01 (setting [6]) is not above 4.11; with HLA-B*40:01 (setting [6]), not above 4.12; with HLA-B*40:02 (setting [6]), 5.04; in the experiment with HLA-B*44:02 (setting [6]) it was 4.84; with HLA-B*44:03 (setting [6]), 5.63; in the experiment with HLA-B*45:01 (setting [6]), not above 4.68.

As to PEIWLQLNTL, the pKd is 4.71 with HLA-B*18:01 (setting [6]); 5.35 with HLA-B*40:01 (setting [6]); 6.96 with HLA-B*40:02 (setting [6]); 4.99 with HLA-B*44:02 (setting [6]); 5.09 in the experiment with HLA-B*44:03 (setting [6]); 4.91 in the experiment with HLA-B*45:01 (setting [6]).

With RECYVQRFYL, the negative logarithm of the Kd (pKd) in the experiment with HLA-B*18:01 (setting [6]) is 6.29; with HLA-B*40:01 (setting [6]), 5.05; in the experiment with HLA-B*40:02 (setting [6]), 8.28; with HLA-B*44:02 (setting [6]), 5.79; with HLA-B*44:03 (setting [6]) it was 5.96; with HLA-B*45:01 (setting [6]) it was 5.81.

As for RKHGGMLVR, in the experiment with HLA-B*48:01 (source organism: Dengue virus 1 Singapore/S275/1990), the pKd was not above 4.70.

In the experiment with HLA-B*48:01 (source organism: West Nile virus), RRFLEPVGK had a pKd not above 4.70.

For SDNGILCPT, the pKd with HLA-B*18:01 (setting [6]) is not above 4.11; with HLA-B*40:01 (setting [6]) it was not above 4.17; with HLA-B*40:02 (setting [6]) it was 5.88; in the experiment with HLA-B*44:02 (setting [6]) it was not above 4.56; with HLA-B*44:03 (setting [6]) it was not above 4.11; in the experiment with HLA-B*45:01 (setting [6]), not above 4.11.

As to SDRVVFVLWA, the pKd with HLA-B*18:01 (setting [1]) is not above 4.58; with HLA-B*40:01 (setting [1]) it was 4.83; in the experiment with HLA-B*40:02 (setting [1]) it was 4.78; with HLA-B*44:02 (setting [1]), 6.18; with HLA-B*44:03 (setting [1]), 6.13; with HLA-B*45:01 (setting [1]), 5.71.
